Drawing on paper PMC8249747, this text covers binding for one sequence.

The data set addresses T1, QseA (YhcS, AaeR) (Escherichia coli K-12 W3110 type-A) (UniProt P67662).
T1 sequence: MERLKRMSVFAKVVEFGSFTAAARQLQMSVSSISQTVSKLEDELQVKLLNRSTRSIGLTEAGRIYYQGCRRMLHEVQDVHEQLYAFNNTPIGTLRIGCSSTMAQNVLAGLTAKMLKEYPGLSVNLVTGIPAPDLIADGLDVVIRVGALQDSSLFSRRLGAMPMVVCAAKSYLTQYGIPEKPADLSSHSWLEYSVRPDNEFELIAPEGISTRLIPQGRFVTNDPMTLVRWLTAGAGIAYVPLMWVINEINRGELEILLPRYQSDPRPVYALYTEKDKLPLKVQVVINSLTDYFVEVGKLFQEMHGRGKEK
As to the kind of experiment: EMSA. The note with it: EMSA: gel shift buffer (composition not given), 37 C 30 min, PAGE, GelRed, footprinting: 1.0 pmol FITC probe, 25 C 30 min, 5 ng …. On the technique in general: Mobility shift assays separate free from complexed probe on a gel.

As to “GCGTTTTAGTCGTTCCATTATTCACTCTGACTTAAAAGTGATTTAGATCACATAATATAGATAACAGCATAACAGTTACGCTAATATATTAAATATCAATCTACAGCAATGTTGCTCTCGCCCGGCTTTCCATGCCCTTCTCTGCGGCGACAGATGCTGAAAATAATAACGCCTGCTCTCTCTTTACAACCAAGGTCAACATGAGTCTGTTTCCCGTTAT (double strand) [aaeX/qseA spacer probe (gel shift)]”, the binding entry is “binds”.
